± gives the uncertainty stated by the source.
Assay: protein stability index of a GFP-peptide fusion (yeast GPS) (PSI 1-4); higher = more stable; sorted into four equal gates, so the index is relative within each strain
Summary of the method: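 Yeast carrying a pooled library were grown to mid-log phase in leucine-free medium. Each library plasmid expresses Cherry and has a tiled 17-residue yeast protein peptide fused downstream of GFP. Cells were sorted into four equal gates by GFP/Cherry ratio, and plasmids from each gate were PCR-amplified, Illumina-sequenced and assigned to strains by barcode. Summing, across gates, the read frequency times the gate number gave each peptide's protein stability index.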

Sequence	protein stability index (doa10∆)	protein stability index (pdr5∆)	protein stability index (san1∆)	protein stability index (ubr1∆)
EFSPRLHNIWSNGLLSI [YML103C/NUP188]	1.85 ± 0.061	1.91 ± 0.059	2.08 ± 0.11	1.89 ± 0.046
HVLKKNPLKNKQVLLRL [RPL4A]	1.43 ± 0.15	1.79 ± 0.086	1.3 ± 0.13	2.38 ± 0.088
ITSNHKSSVPGSAELRN [RPN3]	2.69 ± 0.087	3.25 ± 0.074	2.67 ± 0.069	2.63 ± 0.08
WREQLRNRDIALFQPPN [ROX3]	2.31 ± 0.066	2.95 ± 0.066	2.73 ± 0.059	1.96 ± 0.047
SDVLFEFTKINTPLVGA [YJL039C/NUP192]	1.66 ± 0.042	1.66 ± 0.045	1.45 ± 0.088	1.47 ± 0.037
ATLPYIKQDIPIVIIFR [RPB2]	1.5 ± 0.063	1.2 ± 0.049	1.19 ± 0.12	1.14 ± 0.041
YSSKPYKVDNMTRILPQ [RPN2]	2.62 ± 0.073	2.88 ± 0.072	2.62 ± 0.082	2.31 ± 0.067
NVTTILDEIFSGCDSTK [ECM29]	2.28 ± 0.12	2.8 ± 0.087	2.48 ± 0.073	2.63 ± 0.042
NLGSNVRNSFPLDEIPV [REC8]	2.95 ± 0.074	2.98 ± 0.13	2.88 ± 0.087	3.06 ± 0.058
TQAAEFLSPYISTHLKT [IRR1]	1.96 ± 0.039	2.32 ± 0.059	2.03 ± 0.073	2.21 ± 0.043
HAKRKTVTSLDVVYALK [HHF1]	3.54 ± 0.18	3.57 ± 0.14	3.19 ± 0.084	3.12 ± 0.12
DLLKNAPLFKKNSSRPM [SMD3]	2.27 ± 0.047	1.76 ± 0.043	1.77 ± 0.11	1.62 ± 0.034
NINEVKKASDLVDTPSN [NUT1]	3.14 ± 0.083	2.97 ± 0.085	3.23 ± 0.065	3.27 ± 0.07
VSLTKRKQEREITSLRQ [YIL149C/MLP2]	2.03 ± 0.2	2.32 ± 0.14	2.45 ± 0.14	2.35 ± 0.071
NPEPNKKNIQKAKSNQT [IRR1]	2.25 ± 0.062	2.43 ± 0.062	2.56 ± 0.13	2.56 ± 0.051
RGFKVGLVCADTFRAGA [SRP54]	2.19 ± 0.22	2.25 ± 0.081	–	2.23 ± 0.11
INGEDPANNHQLGLQTV [SMX2]	2.93 ± 0.11	2.94 ± 0.1	2.9 ± 0.073	3.08 ± 0.06
PYGSFHQQQLQQPHYIQ [DSN1]	2.76 ± 0.063	2.98 ± 0.052	2.92 ± 0.044	3.1 ± 0.048
LHKNFESENFKIIALQP [RGR1]	2.56 ± 0.076	2.62 ± 0.078	2.7 ± 0.06	2.58 ± 0.073
PRLSHLSLTAVPSFLRP [GRR1]	2.09 ± 0.042	1.93 ± 0.062	1.79 ± 0.074	2.18 ± 0.045

Sequence	protein stability index (doa10∆)	protein stability index (pdr5∆)	protein stability index (san1∆)	protein stability index (ubr1∆)
EMTLPTSPLYMDPGAPL [SSN2]	3.07 ± 0.11	2.8 ± 0.11	2.8 ± 0.15	2.81 ± 0.11
VKIGKFIPHGLKRRQVI [SRB8]	2.48 ± 0.1	2.23 ± 0.075	3.11 ± 0.06	1.95 ± 0.078
LLDRILPKLKATGHRVL [SNF2]	2.57 ± 0.1	2.54 ± 0.08	2.3 ± 0.08	2.63 ± 0.088
PRTLIGHRATVTDIAII [RPN14]	3.24 ± 0.18	3.54 ± 0.2	3.29 ± 0.1	3.18 ± 0.094
NANTVFAGSNNQPHQSQ [YOR098C/NUP1]	2.85 ± 0.1	3.15 ± 0.08	2.89 ± 0.06	3.07 ± 0.046
VYSKQATFLLTDIKDTL [MCD1]	2.27 ± 0.062	2.3 ± 0.076	2.23 ± 0.086	2.3 ± 0.057
HGINLQNKKNLKWVAVV [SSN2]	2.98 ± 0.066	3.11 ± 0.051	3.05 ± 0.057	3.23 ± 0.057
YFFYASRPEYSCTFWSD [YJL039C/NUP192]	1.22 ± 0.069	1.52 ± 0.084	1.31 ± 0.14	1.62 ± 0.054
LNFYITNVPKAKKRKTL [SIR3]	1.97 ± 0.12	1.86 ± 0.093	1.63 ± 0.12	1.86 ± 0.071
IPGLSAGVNNDNTKESK [RTT102]	3.59 ± 0.11	3.52 ± 0.083	3.38 ± 0.071	3.35 ± 0.081
SKLGKNLQTVHFGHCFN [GRR1]	1.42 ± 0.092	–	2.68 ± 0.11	2.25 ± 0.11
GYDIFLNVVLDDAMEIN [SMX2]	3.13 ± 0.064	3.07 ± 0.075	3.17 ± 0.054	2.99 ± 0.06
LRQQYEIELKKLPKVYK [SWI1]	2.04 ± 0.067	1.75 ± 0.066	2.22 ± 0.12	2.75 ± 0.073
LREVVELPLLSPERFAT [RPT1]	2.13 ± 0.084	2.54 ± 0.07	2.47 ± 0.1	2.33 ± 0.11
IKSGVAKLESLLENSVD [MTW1]	3.29 ± 0.098	3.4 ± 0.091	3.32 ± 0.055	3.4 ± 0.075
AGDWKYDRQLSSLFLDG [FAS2]	2.16 ± 0.057	2.81 ± 0.065	2.34 ± 0.11	2.23 ± 0.056
SDDIISQVDPITLFVLV [FAS2]	1.19 ± 0.045	1.38 ± 0.068	1.33 ± 0.17	1.23 ± 0.064
FRKIKLRVDEVQGKNLL [RPS1A]	2.96 ± 0.12	3.48 ± 0.12	2.93 ± 0.13	3.36 ± 0.065
TSDPVMHKQLAYILAAQ [RPN1]	1.68 ± 0.15	2.52 ± 0.17	–	2.1 ± 0.11
YLAENPDPNFENSIGYN [PRP8]	3.28 ± 0.065	3.08 ± 0.061	3.12 ± 0.088	3.19 ± 0.054
